Source: patent US6730293B1, “Compositions and methods for treating inflammatory diseases of the skin” (CellGate, Inc., priority 1999, dated 2004)
Square brackets hold non-standard residues; d marks the D form. Peptide text beside a SMILES is read from it. * marks the point of attachment. X1 = C[C@]12CCC(=O)C=C1CC[C@@H]1[C@@H]2[C@@H](O)C[C@@]2(C)[C@H]1CC[C@]2(O)C(=O)COC(=O)C*; Biotin = O=C1N[C@H]2[C@H](CS[C@H]2CCCCC(=O)*)N1; Ahx = NCCCCCC(=O)O

Columns and labels:
skin of nude mice = assay: Penetration of hydrocortisone-biotinylated D-arginine conjugates into skin of nude mice; type: in vivo; details: back of nude mice, in PBS, 30, 60, 120 minutes
Protocol: Slides were analyzed by fluorescent microscopy.

[1] = tested on: full thickness human skin grafted onto the back of a SCID mouse; details: in vivo
[2] = tested on: CD3+ T cells in inflamed skin; details: mouse, in vivo
[3] = pH dependent stability / release of releasable Cyclosporin A conjugate; type: physicochemical; details: acidic pH vs physiological pH, absence of serum
Excerpt: See, e.g., R. E. Handschumacher, et al., Science 226, 544-7 (1984).
Another modification in the design of the releasable conjugate was the use of L-arginine (R), and not D-arginine (r) in the transporter.

[4] = tested on: abdominal skin of nude mice; assay: Penetration of Cu-DTPA-r7 complex into skin of nude mice (blue color); type: in vivo; details: abdominal region of nude mice, 15, 30 and 45 minutes
Protocol: Metal diethylenetriaminepentaacetic acid (DTPA) complexes were formed by mixing equimolar amounts of metal salts with DTPA in water for 18 hours. At the end of this time, the solutions were centrifuged, frozen and lyophilized. The dried powder was characterized by mass spectrometry and used in solid phase peptide synthesis. The metal-DTPA complexes were attached to polymers of D- or L-arginine that were still attached to solid-phase resin used in peptide synthesis. The metal-DTPA complexes were attached using an aminocaproic acid spacer. The solid phase peptide synthesis techniques were described in Example 1, with the exception that cleavage of the peptide-DTPA -metal complex in trifluoroacetic acid released the metal. The metal is replaced after HPLC purification and lyophilization of the peptide-DTPA complex. Replacement of the metal involved incubation of equimolar amounts of the metal salt with the peptide-aminocaproic acid-DTPA complex and subsequent lyophilization.
Varying concentrations (1 M to 1 mM) of the Cu-DTPA -aca-r7 complex were applied to the abdominal region of nude mice for 15, 30 and 45 minutes. As controls, an equimolar amount of the Cu-DTPA complex was spotted onto the abdominal region.

With C[C@H](NC(=O)[C@H](C)NC(=O)[C@@H](CCCNC(=N)N)NC(=O)[C@@H](CCCNC(=N)N)NC(=O)[C@@H](CCCNC(=N)N)NC(=O)[C@@H](CCCNC(=N)N)NC(=O)[C@@H](CCCNC(=N)N)NC(=O)CCCCCNC(=O)CCCC[C@@H]1SC[C@@H]2NC(=O)N[C@@H]21)C(=O)N[C@@H](CSCC(=O)OCC(=O)[C@@]1(O)CC[C@H]2[C@@H]3CCC4=CC(=O)CC[C@]4(C)[C@H]3[C@@H](O)C[C@@]21C)C(N)=O ({Biotin-Ahx}-[dR][dR][dR][dR][dR]AAC(X1)-NH2) the “penetration into skin (fluorescent streptavidin staining)” value (skin of nude mice) was “very little uptake”.
For C[C@H](NC(=O)[C@H](C)NC(=O)[C@@H](CCCNC(=N)N)NC(=O)[C@@H](CCCNC(=N)N)NC(=O)[C@@H](CCCNC(=N)N)NC(=O)[C@@H](CCCNC(=N)N)NC(=O)[C@@H](CCCNC(=N)N)NC(=O)[C@@H](CCCNC(=N)N)NC(=O)[C@@H](CCCNC(=N)N)NC(=O)CCCCCNC(=O)CCCC[C@@H]1SC[C@@H]2NC(=O)N[C@@H]21)C(=O)N[C@@H](CSCC(=O)OCC(=O)[C@@]1(O)CC[C@H]2[C@@H]3CCC4=CC(=O)CC[C@]4(C)[C@H]3[C@@H](O)C[C@@]21C)C(N)=O ({Biotin-Ahx}-[dR][dR][dR][dR][dR][dR][dR]AAC(X1)-NH2), the “penetration into skin (fluorescent streptavidin staining)” value (skin of nude mice) was “effectively entered into and across the epidermis and into the dermis”.
In the case of C/C=C/C[C@@H](C)[C@@H](OC(=O)CSC[C@H](NC(=O)[C@@H](CCCNC(=N)N)NC(=O)[C@@H](CCCNC(=N)N)NC(=O)[C@@H](CCCNC(=N)N)NC(=O)[C@@H](CCCNC(=N)N)NC(=O)[C@@H](CCCNC(=N)N)NC(=O)[C@@H](CCCNC(=N)N)NC(=O)[C@@H](CCCNC(=N)N)NC(=O)CCCCCNC(=O)CCCC[C@@H]1SC[C@@H]2NC(=O)N[C@@H]21)C(N)=O)[C@H]1C(=O)N[C@@H](CC)C(=O)N(C)CC(=O)N(C)[C@@H](CC(C)C)C(=O)N[C@@H](C(C)C)C(=O)N(C)[C@@H](CC(C)C)C(=O)N[C@@H](C)C(=O)N[C@H](C)C(=O)N(C)[C@@H](CC(C)C)C(=O)N(C)[C@@H](CC(C)C)C(=O)N(C)[C@@H](C(C)C)C(=O)N1C [biotin r7 CsA, B-aca-r7-Cys-O-acyl-Cyclosporin A], the “penetration into human skin” value [1] is reported as “penetrated human epidermis and dermis” and the “presence in CD3+ T cells of inflamed skin” value [2] is reported as “found in all CD3[+] T cells”.
For C/C=C/C[C@@H](C)[C@@H](OC(=O)CN(Cc1ccccc1)C(=O)CNCC(=O)N[C@@H](CCCNC(=N)N)C(=O)N[C@@H](CCCNC(=N)N)C(=O)N[C@@H](CCCNC(=N)N)C(=O)N[C@@H](CCCNC(=N)N)C(=O)N[C@@H](CCCNC(=N)N)C(=O)N[C@@H](CCCNC(=N)N)C(=O)N[C@@H](CCCNC(=N)N)C(N)=O)[C@H]1C(=O)N[C@@H](CC)C(=O)N(C)CC(=O)N(C)[C@@H](CC(C)C)C(=O)N[C@@H](C(C)C)C(=O)N(C)[C@@H](CC(C)C)C(=O)N[C@@H](C)C(=O)N[C@H](C)C(=O)N(C)[C@@H](CC(C)C)C(=O)N(C)[C@@H](CC(C)C)C(=O)N(C)[C@@H](C(C)C)C(=O)N1C [releasable R7 CsA conjugate], the pH stability [3] was “stable at acidic pH, but labile at physiological pH”.
In the case of “Copper-diethylenetriaminepentaacetic Acid Complex [Cu-DTPA]”, the “blue color on skin after wiping off” value [4] is reported as “not where the Cu-DTPA alone was spotted”.
